The results in this text go back to PMC5384650.

Substrate in the data set: NC[C@H](N)C(=O)O
The experiment in a line: coupled NADH oxidation assay. It counts as biochemical, Salmonella enterica. Particulars: ATP, Mg2+ used in place of beta-alanine.

B1: pantothenate synthetase (PanC) (Salmonella enterica subsp. enterica serovar Typhimurium str. LT2) (protein)
chain: MLIIETLPLLRQHIRRLRQEGKRVALVPTMGNLHDGHMKLVDEAKARADVVIVSIFVNPMQFDRPDDLVRYPRTLQEDCEKLNKRKVDYVFAPAVEEIYPHGLEGQTYVDVPGLSTMLEGASRPGHFRGVSTIVSKLFNLIQPDIACFGEKDFQQLALIRKMVADMSYDIEIVGVPIIRAKDGLALSSRNAYLTAEQRKIAPGLYNVMNSIAEKLIAGNRELQEIIAIAEQELNEKGFRADDIQIRDADTLLELTETSKRAVILAAAWLGQARLIDNQSVTLAQ
By Km is commonly meant the concentration of substrate that gives half-maximal velocity. Turning to B1, the Km was 8.1 mM.
